Consider three molecules from US20190275081A1 (published 2019).

Experiment [1] concerns the target T1, NY-ESO-1 peptide on HLA-A*02:01 (human).
T1 peptide: SLLMWITQC
Description: cytokine release.

Experiment [2] has as its target T1, NY-ESO-1 peptide on HLA-A*02:01. As to the kind of experiment: killing.

B1: JD (TCR, V domains shown)
Valpha: QKEVEQNSGPLSVPEGAIASLNCTYSDRGSQSFFWYRQYSGKSPELIMFIYSNGDKEDGRFTAQLNKASQYVSLLIRDSQPSDSATYLCAVGATNKLIFGTGTLLAVQP
Vbeta: EAGVTQFPSHSVIEKGQTVTLRCDPISGHDNLYWYRRVMGKEIKFLLHFVKESKQDESGMPNNRFLAERTGGTYSTLKVQPAELEDSGVYFCASSQAYGTEAFFGQGTRLTVV
As to B1, the binding result in experiment [1] is “recognises”.

B2: AL (TCR, V domains shown)
Valpha: QKEVEQNSGPLSVPEGAIASLNCTYSDRGSQSFFWYRQYSGKSPELIMSIYSNGDKEDGRFTAQLNKASQYVSLLIRDSQPSDSATYLCAVGGLTSSNTGKLIFGQGTTLQVKP
Vbeta: DVKVTQSSRYLVKRTGEKVFLECVQDMDHENMFWYRQDPGLGLRLIYFSYDVKMKEKGDIPEGYSVSREKKERFSLILESASTNQTSMYLCASSNQIYGYTFGSGTRLTVV
As for B2, the binding result in experiment [2] is on record as “recognises”.

B3: 19305DP (TCR, V domains shown)
Valpha: SQQGEEDPQALSIQEGENATMNCSYKTSINNLQWYRQNSGRGLVHLILIRSNEREKHSGRLRVTLDTSKKSSSLLITASRAADTASYFCATDGGGTLTFGKGTMLLVSP
Vbeta: DAGVIQSPRHEVTEMGQEVTLRCKPISGHDYLFWYRQTMMRGLELLIYFNNNVPIDDSGMPEDRFSAKMPNASFSTLKIQPSEPRDSAVYFCASKWGGTEAFFGQGTRLTVV
Turning to B3, in experiment [2], the binding result is on record as “recognises”.
